The experiment has as its target T1, His6-tagged ERK2 (Dictyostelium discoideum, UniProt Q54QB1 1-369).
T1 sequence (looked up): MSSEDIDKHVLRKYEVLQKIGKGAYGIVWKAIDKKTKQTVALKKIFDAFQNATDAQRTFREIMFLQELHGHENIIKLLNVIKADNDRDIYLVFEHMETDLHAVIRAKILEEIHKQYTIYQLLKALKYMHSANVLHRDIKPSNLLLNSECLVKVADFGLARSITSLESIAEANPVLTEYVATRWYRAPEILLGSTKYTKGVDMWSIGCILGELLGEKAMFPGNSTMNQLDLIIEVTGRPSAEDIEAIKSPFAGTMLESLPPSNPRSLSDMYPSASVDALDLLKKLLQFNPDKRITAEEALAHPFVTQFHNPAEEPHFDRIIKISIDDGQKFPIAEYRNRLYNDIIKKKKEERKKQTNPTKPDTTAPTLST
In words: pull-down.

Positions count from the first letter of the chain named. Names may count otherwise.

B1: Myc-tagged Gα4 subunit (wild type) (natural protein, Dictyostelium discoideum, UniProt P34042 1-345, looked up)
chain: MRFKCFGSEETEQSSKIDKSIETDRRKLRKDVKLLLLGPGESGKSTIFKQMKIIQEDGGYSVEELLEYRAFVYSNCISQMEALLTASAKLNIELEVENKQRAANVLRRTIGNEPWLLLAADIKHLWEDKGIKETYAQKDKHFQLNDSAAYFFDNIDRYMREDFVPNEQDVLRCRVRTTGIQESEFTFDKIRLKIVDVGGQRSQRRKWIHCFDCVTAVIFVAAMSDYDQVLREDESVNRTRESLALFKEIVNCDYFKETPIVLFLNKKDLFKEKLKRVPLQSCFSDYTGPNKYKDAAMFIQSQYLAQGPSPRTIYTHATCAVDTENIKFVFRAVRQTILSQALEHF
Regarding B1, the “pull-down yield (percent of the cell extract)” value is approximately 22%.

B2: Myc-tagged Gα4^R107E,R108E subunit (altered D-motif) (natural protein, Dictyostelium discoideum, UniProt P34042 1-345, looked up)
chain: B1 chain with R107E, R108E
Consider B2, for which the “pull-down yield (percent of the cell extract)” value was approximately 9%.

B3: Myc-tagged constitutively active Gα4^Q200L subunit (natural protein, Dictyostelium discoideum, UniProt P34042 1-345, looked up)
chain: B1 chain with Q200L
As to B3, the “pull-down yield (percent of the cell extract)” value was approximately 9%.

B4: Myc-tagged Gα4^(R107E, R108E, Q200L) subunit (natural protein, Dictyostelium discoideum, UniProt P34042 1-345, looked up)
chain: B1 chain with R107E, R108E, Q200L
For the molecule B4, the “pull-down yield (percent of the cell extract)” value is approximately 4%.

The values above are taken from publication PMC2783421 (Developmental biology, 2009).
